The results in this text go back to patent publication US20240343788A1 (published 2024).

The target in the assay is T1, A155.
T1 construct: also called antibody-based multispecific antagonist A155
The experiment in a line: BLI (Octet RED96), antagonist captured on biosensor, ligand in solution. The source says:
The binding sensorgrams were collected using the 8-channel detection mode on the biosensor.
A general note: BLI is a label-free optical method that tracks binding on a fibre tip over time.

By Kd is commonly meant the concentration at which binding is half-saturated.

B1: TGF-β3 (ligand)
chain: ALDTNYCFRNLEENCCVRPLYIDFRQDLGWKWVHEPKGYYANFCSGPCPYLRSADTTHSTVLGLYNTLNPEASASPCCVPQDLEPLTILYYVGRTPKVEQLSNMVVKSCKCS
notes: also called TGF-33 (misprint in the text)
Molecule B1 had a Kd of about 20 nM.
